The values below come from the NTF2 design screens of Basanta et al. (2020).

A short description of the data set: protease stability score; higher = more stable; yeast display proteolysis, trypsin and chymotrypsin.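 Further: relative to predicted unfolded state with 0 unfolded-like and 1 meaning tenfold more protease.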
As for “KEKEEIARMMLKELIKTIRTGDPEEWHKLFDPHVLIVIDGREIHGMEEHTRLLRELGIDRIELHTQHERHVSVQGDKVHLDIDVDGMFDGQKRRFHMHIDALKVNGQWVIQYIEIR”, the protease stability score came out at 1.96.

In turn, “KELDEKVDTAIRIFHDVMLTGDEEKLIKLMDPNTRIRYNGRELHGWESHIKLREEELHELGVERVVHIFHNREIRAYDGVADIKGELEIRFNGRTVRHEFRIKFEKVNGRWVVREIEIH” showed a protease stability score of 1.31.

“KELEEHELRLAKDMSKVIETGDEERLRRLADPHVKVHINGKTRHGREWMSHLLNLMLTELRVRHLHIKDVFEVNGVAHSETELDGEVNGREIELHTEIILVVVNGKIQRLEIRIE” registered a protease stability score of 1.06.

Consider “KELERDSREATHTFLRDIKTGDFESLHRLADPTTRMHIGDKEFHGWELLIHVIAEFLRKVPNMRTTLRDERVQGEKVEVRVDIHYNGQDRHIELEIHKVNGKWWIKVMEFE”, for which the protease stability score was determined as 0.88.

In turn, “KEQDHLIKNVLERLFRAFHTGNEEELEKLIDPHAMIIIGDKHFHGREEVLHTLVNLVNEIRFRDMELKDSRLFDGRVNIDLDEHIRQGDKHHLYEVHLILYKFDGRWFIRKFEIR” came in with a protease stability score of 1.46.

“KEREELLKTAADLMYHIWHTGDFEKLFKNVDPHVKINVGDKTYVGREQMHKIFKELKERLGFDVSSLEHRHLDMQGDFIFNELHVRLHQGDFEIQSWIHVIIYKVNGKWVVHEIKLHWD” returned a protease stability score of 1.6.

For the sequence “KESEEDARKFWEKMVEDNRTGDWDSFEKLVDPHVKMLFNGREYHGRDELLDLFRHIRFKDHEIHDMKVIGNKVRMDTRVHLNVNGREISVDTHLVVEKINGRWVLHSVLFH”, the protease stability score is 1.62.

As for “KHEEDEWKRMIDIVLHMLKTGNFELLERLADPHARSHIDGVRIHGREKFVEILFEVWHFYKNLTISINHIDVFNGVIVIHGRLDINGRQVEVHIVVTKINGKWFLESHSEIFH”, the protease stability score was 0.572.

“LEDEEMLEEVDKRLVHAFLTGDFNTIERMLDPDTKVRINGRESIGRENVAKVLHEERRHMRLDIIEIRRIRLVGEFIHSDTRLDININGRRIKFTFRIIVLKINGQWIVESLEID” showed a protease stability score of 2.06.

On to “LEEEEEAKTMIEHHFDNFRTGDEDLIHKLADPHVRVLYNGKILHGREKLVEMIHKLVEKMGVDHLEYRHRDMKIWDGQVEVHGERIIRQGDKTYRFDVILFVLKVDGRWVIKEVRVQ”, for which the protease stability score came out at 1.47.

“LEEEEETKEMNDKMRHVMETGDEDSFRKLADPHVRVDINGREFHGMDNAAEIMSHLRIHKFHVHDTRNINGKVQVESRLTRIIDGKKQHVRTEWIIVKIDGQWIFREWIVK” gave a protease stability score of 0.58.

The sequence “LEEEEIARELLKRILDMLFTGDEEVLSELLDPNVRVDFNGVEIHGREHVREWMHHLRFRHLHLRDFRVQGDKLHLDTETRGEIDGQEVRIETRLIARKVDGRWILKSREFV” yielded a protease stability score of 1.53.

“LEEKDEVHHIVDRLFKVLMTGDFEILRHLLDPDDRLKIDINGRQIDLHGREEVVHWVIHELRELRIELRVKRVHHTENHYVADTRLHIRQGDKEFVHETEWRILIIDGKNKEWRIIVH”: the protease stability score stood at 1.38.

In turn, “LEFEEHLHRWVNFYLNVHRTGDEEHIEKLADPDMRIEVGDKELHGRERAYEFWRRYLEEARLHDMKIRSVELVGDKIILDTEIHSIVGDKHIRERLEIILTKINGRWMLKSMRVQ” registered a protease stability score of 1.45.

“LESEEDLREAIRILIEDLRTGDEDSLHNLLDPNVRIDVNGVKLHGMEWVSHTIRHLGVKHTYVINRRIKIQGNKVDIDGEFNLRYDGKEERRRITLHVQKIDGVWVIEEITIR” came in with a protease stability score of 0.971.

The sequence “NDDQKELEHIMKLLSRALETGDEEKLRELFDPHTRIHINGVTRIGWEHMKHHFEDLGLSNFHFHLRVRHFDVQGDKARVEGELVVNFNGKETSHDVEWRLEKVNGRWIVKSIIVG” registered a protease stability score of 2.27.

As for “NDEEQVAHKFFEKLMHALLTGDEERLKELHDPDVRVDYGNFKLVGREKMVEFWHRFLEEIRLRNTHIETYHIFDGRLEIHSRIHIEVDGKIRIMEVYLEVRKIDGKWRLTHVEFR”, the protease stability score worked out at 1.68.

The sequence “NDIEQIVREVLELIYHAIATGDWEHIYKNADPNVKYEQGDKEFHGREILSEMIVHIRLRDLELNRLHIVGDKVHIHGHFHMDINGRERLVKTEYIIRKVDGQWRLESLIIR” gave a protease stability score of 1.23.
